We go through one protein from paper PMC5734868 (ACS infectious diseases, 2017).

This series concerns the molecule itself. The experiment in a line: SDS-PAGE of semi-denatured protein.

B1: PanD 114Stop (aspartate decarboxylase domain without the C-terminal tail) (domain or fragment)
chain: MLRTMLKSKIHRATVTCADLHYVGSVTIDADLMDAADLLEGEQVTIVDIDNGARLVTYAITGERGSGVIGINGAAAHLVHPGDLVILIAYATMDDARARTYQPRIVFVDAYNKP
As for B1, the binding result was “binds”.
